According to paper PMC5095173, “Disulfide-activated protein kinase G Iα regulates cardiac diastolic relaxation and fine-tunes the Frank–Starling response” (Nature Communications, 2016):

Experiments:
[1] = test system: PKGIα (analogue-sensitive C42S/M438G), cGMP-activated; test: Chemical genetic phosphoproteomic screen, cGMP-activated PKGIα C42S/M438G versus unactivated control; type: biochemical, human PKGIα; substrates in rat heart homogenate; conditions: control = PKGIα C42S/M438G
Summary of the method: (§1)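 Analogue-sensitive human PKGIα mutants (M438G, air-oxidized to disulfide dimer; C42S/M438G, cGMP-activated), expressed in 293-F cells, thiophosphorylate substrates in rat left-ventricle lysate (20 mg ml) using N6-alkylated ATPγS. Thiophosphopeptides are recovered by covalent capture and identified with sites by LC–MS/MS, each compared against an unactivated control.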

[2] = test system: PKGIα (analogue-sensitive M438G), disulfide-activated; test: Chemical genetic phosphoproteomic screen, disulfide-activated PKGIα M438G versus unactivated control; type: biochemical, human PKGIα; substrates in rat heart homogenate; conditions: control = PKGIα C42S/M438G
Summary of the method: as §1

| Molecule | log2 fold change cGMP vs Control [1] | log2 fold change Disulfide vs Control [2] |
| --- | --- | --- |
| Rrad pS25 (protein, UniProt P55043 1-306, looked up, phosphorylated at S25) GTP-binding protein RAD: MTLNGGSGAGGSRSAGRERDRRRGSTPWGPAPPLHRRSMPVDERDLQAALTPGSLAATAAGTRTQGQRLDWPEGSSDSLSSGDSGSEDGVYKVHAAGAPGVGKSALARIFGGVEDGPEAEAAGHTYDRSITVDGEEASLMVYDIWEQDGGCWLPGHCMAMGDAYVIVYSITDKGSFEKASELRVQLRARRQTDVPIILVGNKSDLVRSREVSVDEGRACAEVFDCKFIETSAALHHNVQALFEGVVRQIRLRRDSKEDNARRQAGTRRRESLGKKAKLFLGRIVARNSRKMAFLAKSKSCHDLSVL | -0.2363 | -0.2493 |
| Matr3 pT150 (protein, UniProt P43244 2-845, looked up, phosphorylated at T150) Matrin-3: SKSFQQSSLGRDSQGHGRDLSAAGIGLLAAATQSLSMPASLGRMNQGTARLASLMNLGMSSSLNQQGAHSALSSASTSSHNLQSIFNIGSRGPLPLSSQHRGDTDQASNILASFGLSARDLDELSRYPEDKITPENLPQILLQLKRRRTEEGPTLSYGRDGRSATREPPYRVPRDDWEEKRHFRRDSFDDRGPSLNPVLDYDHGSRSQESGYYDRMDYEDDRLRDGERCRDDSFFGETSHNYHKFDSEYERMGRGPGPLQERSLFEKKRGAPPSSNIEDFHGLLPKGYPHLCSICDLPVHSNKEWSQHINGASHSRRCQLLLEIYPEWNPDNDTGHTMGDPFMLQQSTNPAPGILGPPPPSFHLGGPAVGPRGNLGAGNGNLQGPRHMQKGRVETSRVVHIMDFQRGKNLRYQLLQLVEPFGVISNHLILNKINEAFIEMATTEDAQAAVDYYTTTPALVFGKPVRVHLSQKYKRIKKPEGKPDEKFDQKQELGRVIHLSNLPHSGYSDSAVLKLAEPYGKIKNYILMRMKSQAFIEMETREDAMAMVDHCLKKALWFQGRCVKVDLSEKYKKLVLRIPNRGIDLLKKDKSRKRSYSPDGKESPSDKKSKTDGAQKTENPAEGKEQEEKSGEDGEKDTKDDQTEQEPSMLLESEDELLVDEEEAAALIESGSSVGDETDLANLGDVSSDGKKEPSDKAVKKDASATSKKKLKKVDKIEELDQENEAALENGIKNEENTEPGAESAENADDPNKDASDNSDGQNDENKEDYTIPDEYRIGPYQPNVPGGIDYVIPKTGFYCKLCSLFYTNEEVAKNTHCSSLPHYQKLKKFLNKLAEERRQKKES | 3.582 | 1.381 |
| Matr3 pS188 (protein, UniProt P43244 2-845, looked up, phosphorylated at S188) Matrin-3: SKSFQQSSLGRDSQGHGRDLSAAGIGLLAAATQSLSMPASLGRMNQGTARLASLMNLGMSSSLNQQGAHSALSSASTSSHNLQSIFNIGSRGPLPLSSQHRGDTDQASNILASFGLSARDLDELSRYPEDKITPENLPQILLQLKRRRTEEGPTLSYGRDGRSATREPPYRVPRDDWEEKRHFRRDSFDDRGPSLNPVLDYDHGSRSQESGYYDRMDYEDDRLRDGERCRDDSFFGETSHNYHKFDSEYERMGRGPGPLQERSLFEKKRGAPPSSNIEDFHGLLPKGYPHLCSICDLPVHSNKEWSQHINGASHSRRCQLLLEIYPEWNPDNDTGHTMGDPFMLQQSTNPAPGILGPPPPSFHLGGPAVGPRGNLGAGNGNLQGPRHMQKGRVETSRVVHIMDFQRGKNLRYQLLQLVEPFGVISNHLILNKINEAFIEMATTEDAQAAVDYYTTTPALVFGKPVRVHLSQKYKRIKKPEGKPDEKFDQKQELGRVIHLSNLPHSGYSDSAVLKLAEPYGKIKNYILMRMKSQAFIEMETREDAMAMVDHCLKKALWFQGRCVKVDLSEKYKKLVLRIPNRGIDLLKKDKSRKRSYSPDGKESPSDKKSKTDGAQKTENPAEGKEQEEKSGEDGEKDTKDDQTEQEPSMLLESEDELLVDEEEAAALIESGSSVGDETDLANLGDVSSDGKKEPSDKAVKKDASATSKKKLKKVDKIEELDQENEAALENGIKNEENTEPGAESAENADDPNKDASDNSDGQNDENKEDYTIPDEYRIGPYQPNVPGGIDYVIPKTGFYCKLCSLFYTNEEVAKNTHCSSLPHYQKLKKFLNKLAEERRQKKES | 1.38 | -0.9169 |
| Hmga1 pS36 (protein, UniProt P17095 2-107, looked up, phosphorylated S36) High mobility group protein …: SESGSKSSQPLASKQEKDGTEKRGRGRPRKQPPVSPGTALVGSQKEPSEVPTPKRPRGRPKGSKNKGAAKTRKVTTAPGRKPRGRPKKLEKEEEEGISQESSEEEQ | 4.39 | 1.6764 |
| Lrpprc pS656 (protein, UniProt Q5SGE0 78-1392, looked up, phosphorylated at S656) Leucine-rich PPR …: SGSQFDWALMRLDNSVRRTGRITKGLLQKVFESTCRSGSPGSNQALLLLRSCGSLLPELSLAERTEFAHKIWDKLQQLGTVYDVSHYNALLKVYLQNEYRFSPTDFLAKMEGANIQPNRVTYQRLIAAYCSVGDIEGASKILGFMKTRDLPITEAVFSALVTGHARAGDMESAENILTVMKQAGIEPGPDTYLALLNAHAEKGDIDHVKQILEKVEKSDHYFMDRDFLQIIVSFSKAGYPQYVSEILEKITYERRSIPDAMNLILLLVTEKLEDTAFQVLLALPLARDETSSSFGSFFLRHCVTMDTPAEKLIDYCKRLRDAKVHSSSLQFTLHCALQANKTALAKAVMEALRDEGFPIRTHYFWPLLVGHQKTKNVQGIIDILKIMKEMGVDPDQETYINYVFPCFGSVQSARAALQENKCLPKSTTFAQAEVRNEAINGNLQNILSFLESNALPFSFNSLRGSLILGFRRSMNIDLWSKITELLYKDDRYCQKPPGPTEAVGYFLYNLIDSMSDSEVQAKEERLRQYFHQLREMNVKVSENIYKGICNLLDNYHVPELIKDVKVLVDREKIDSRKTSQFTSSDLESTLEKLKAEGHPVGDPLKQLILLLCSEENMQKALEVKAKYESDMVIGGYAALINLCCRHDNAEDALNLKQEFDRLDPSAVLDTAKYVALVKVLGKHGRVQDAINILKEMKEKDVVIKDAAVLSFFHILNGAALRGEIETVKQLHEAIVTLGLAKPSSNISFPLVTVHLEKDDLPAALEASIACHEKYKVLPRIHDVLCKLIEKGETDLIQKAMDFVSQEQGEMSMLYDLFFAFLQTGNYKEAKKIIETPGIRARPTRLQWFCDRCIANNQVETLEKLVELTEKLFECDRDQMYYNLLKLYKISGDWQRADAVWNKMQEENLIPRERTLRLLAGILKTSNQEVPFDVPELWFGDDRSSLSSSSPSAGDTVTEKMLLSDCRLKKSKDAYNIFLKAEKQDVVFSSEAYSTLVGLLLSKDDFTRAMHVKDFAETHIKGFTLNGAASSLLIIAQVRRDYLKVALETLKAALDLEQVPSELAVTRLIQALALQGDVKSIETIQKMVKGLDAIELSRMVFINNIALAQMKNNEIDAAIENIEHMLASENQTVEHQYFGLSYLFRKVIEEQMEPALEKLSIMSERLANQFALYKPVTDLFLQLVDSGKVDEARALLERCGAIAEQTSILSVFCLRTSQKPKKAPVLKTLLELIPELRENDRVYSCSMKSYVADKDVASAKALYEHLTAKNMKLDDLFLKRYASLLKDVGEPVPFTEPPESFGFYIKQLKEARENPS | 4.57 | 0.7702 |
| Hspb6 pS16 (protein, UniProt P97541 1-162, looked up, phosphorylated at S16) Heat shock protein beta-6: MEIRVPVQPSWLRRASAPLPGFSTPGRLFDQRFGEGLLEAELASLCPAAIAPYYLRAPSVALPTAQVPTDPGYFSVLLDVKHFSPEEISVKVVGDHVEVHARHEERPDEHGFIAREFHRRYRLPPGVDPAAVTSALSPEGVLSIQATPASAQASLPSPPAAK | 2.607 | 1.245 |
| Hspb1 pS9 (protein, UniProt P14602 1-209, looked up, phosphorylated S9) Heat shock protein beta-1: MTERRVPFSLLRSPSWEPFRDWYPAHSRLFDQAFGVPRLPDEWSQWFSAAGWPGYVRPLPAATAEGPAAVTLAAPAFSRALNRQLSSGVSEIRQTADRWRVSLDVNHFAPEELTVKTKEGVVEITGKHEERQDEHGYISRCFTRKYTLPPGVDPTLVSSSLSPEGTLTVEAPLPKAVTQSAEITIPVTFEARAQIGGPEAGKSEQSGAK | 1.482 | -0.3759 |
| Jph2 pS240 (protein, UniProt Q2PS20 1-692, looked up, phosphorylated at S240) Junctophilin-2: MSGGRFDFDDGGAYCGGWEGGKAHGHGLCTGPKGQGEYSGSWNFGFEVAGVYTWPSGNTFEGYWSQGKRHGLGIETKGRWLYKGEWTHGFKGRYGIRQSTNSGAKYEGTWNNGLQDGYGTETYADGGTYQGQFTNGMRHGYGVRQSVPYGMAVVVRSPLRTSLSSLRSEHSNGTVAPDSPAADGPTLPLPPVPRGGFALSLLATAEAARPPGLFTRGALLGRLRRSESRTSLGSQRSRLSFLKSELSSGASDAASTGSLAEGAEGPDDAAAPFDADIDATTTETYMGEWKNDKRSGFGVSERSSGLRYEGEWLDNLRHGYGRTTLPDGHREEGKYRHNVLVKGTKRRVLPLKSNKVRQKVEHGVEGAQRAAAIARQKAEIAASRTSHAKAKAEAAEQAALAANQESNIARTLAKELAPDFYQPGPEYQKRRLLQEILENSESLLEPRERGPGTGLPERPRESPQLHERETPQPEGGPPSPAGTPPQPKRPRPGSSKDGLLSPGAWNGEPGGEGSRPATPSDGAGRRSPARPASEHMAIEALQPPPAPSREPEVALYRGYHSYAVRTGPPEPPPLEDEPEPEPEVPRSDSEPPSPVSATVQEEESPAPRSRVPAKPATLEPKPIVPKAEPKAKARKTEARGLSKAGAKKKGRKEVAQEAEAEVEVEEVPNTVLICMVILLNIGLAILFVHLLT | 0.1615 | 0.2694 |
